In publication doi:10.1101/575910 (bioRxiv, 2019) one finds Kd data, which are given here for 2 molecules.

As a reminder, the Kd is the constant that tells how readily two partners part at equilibrium.

Experiment [1] concerns the target N-terminal region of Cul3 (Cul3a residues 1-379) (zebrafish, UniProt F6NVK8 1-379). Nature of the experiment: MST.
Experiment [2] concerns the target Cul3 NTD lacking the first 18 amino acids (zebrafish, UniProt F6NVK8 19-379). Nature of the experiment: MST.

B1: BTB-BACK fragment of Btbd6 (Btbd6a residues 119-361) (domain or fragment)
chain: SAHPTLRERNALMFNNEQMADVHFIVGPPGESQRVPAHKYVLAVGSSVFCAMFYGDLAEGDSDIHIPDVEPAAFLILLKYMYSDEIELAPDTVLATLYAAKKYLVSALARACVGFLETSLEARNACVLLSQSRLFEEPELTQRCWEVIDAQAELALRSEGFSEIDLPTLESILHRETLNVKESVVFQAVLGWADAECRRQGLSPTSQNQRSVLGKALHLVRLPSMTLQEFADGAAQVDILTLE
modifications: NT-647 amine-reactive dye (RED-NHS kit) where used as the labelled partner in MST
B1 returned a Kd in experiment [1] of 0.012 µM.

B2: BTB domain of Plzf (Plzfa residues 8-126) (domain or fragment)
chain: MIQLQNPNHPNALLHKANQMRLAGTLCDVVIMVDSQEFHAHRTVLACTSKMFEILFHRNSQHYTLDFLSPKTFQQILEYAYTATLQAKVEDLDDLLYAAEILEIEYLEEQCLKILETIQ
modifications: NT-647 amine-reactive dye (RED-NHS kit) where used as the labelled partner in MST
B2: the Kd is 2.9 µM in experiment [1] and ≥ 20 µM in experiment [2].
